Bridge positions count the residues as written; N and C are the ends. Ends that are not written are not given here.
B1: soluble v114 peptide (Anaspec) (peptide)
peptide: VEPNCDIHVMWEWECFERL
notes: also called Genentech v114 peptide
B2: L3.F5A.02 (peptide)
peptide: VTSRYEMREDGSWKKGGGSGGGNFGYGKWEWDYGKWLEKVG
notes: not shown: CPXopt bacterial display scaffold (carrier)
B3: L3.F6.02 (peptide)
peptide: SKLKTLLWQQGGGSGGGNFGYGKWEWDYGKWLEKV
modifications: Displayed on the E. coli surface as a fusion to CPXopt; the letters do not carry the scaffold.
notes: Peptide 2 is printed without the final G of L2.F4.04; not shown: CPXopt bacterial display scaffold that carried the peptide on the cell surface
B4: L3.F5A.03 (peptide)
peptide: AKRSSYSMWGAMPGGGSGGGNFGYGKWEWDYGKWLEKV
modifications: Displayed on the E. coli surface as a fusion to CPXopt; the letters do not carry the scaffold.
notes: as for B3
B5: L2.F4.04 (peptide)
peptide: NFGYGKWEWDYGKWLEKVG
notes: as for B2
B6: L3.F6.01 (peptide)
peptide: SYVLKEWSVPSWGKPGGGSGGGNFGYGKWEWDYGKWLEKV
modifications: Displayed on the E. coli surface as a fusion to CPXopt; the letters do not carry the scaffold.
notes: as for B3
B7: L3.F5A.01 (peptide)
peptide: SSKCGRWGETPCLAEGGGSGGGNFGYGKWEWDYGKWLEKVG
notes: also called bidentate peptide L3.F5A.01; not shown: CPXopt bacterial display scaffold (carrier)
B8: L2.F3B.08 (peptide)
peptide: CPVQTMWDWECMRAFIEG
modifications: disulfide 1-11 (inferred)
notes: as for B2

What was measured:
[1] = test system: biotinylated VEGF; experiment: First order dissociation rate constants (koff) of cell-surface displayed peptides, flow cytometry; assay type: binding; settings: peptide displayed on bacterial cell surface; for RT koff: room temperature
Chain of biotinylated VEGF (P15692 207-320 limits assumed): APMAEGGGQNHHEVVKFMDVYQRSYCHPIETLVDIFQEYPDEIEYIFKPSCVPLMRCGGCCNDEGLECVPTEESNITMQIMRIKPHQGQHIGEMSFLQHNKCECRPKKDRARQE
Protocol: (§1) Cells displaying VEGF-binding peptides were first incubated with biotinylated VEGF and allowed to equilibrate at 4° C. After centrifugation, excess VEGF was removed. The cells were then resuspended in buffer, such that the concentration of cells was diluted 1:10, as compared to the VEGF-labeling step. Cells were allowed to incubate in buffer at room temperature or 37° C. for times varying from 5 minutes to 21 hours to allow dissociation of VEGF from the cell surface. After the appropriate amount of time, the cells were placed on ice to stop the dissociation, and streptavidin-phycoerythrin (SAPE) was added for fluorescence labeling. After centrifugation, excess SAPE was removed, and cellular fluorescence was measured by flow cytometry. Fluorescence data as a function of dissociation time was used to determine koff.

[2] = test system: VEGF; experiment: Clone characterization: off-rate from VEGF at room temperature (Example 1); assay type: binding; settings: 10 nM VEGF labeling, FIG. 3, FIG. 4
Protocol: Initial measurements of off-rate were made for each clone in order to narrow down the search for the best binding peptide. Each clone was labeled with 10-nM VEGF. Excess VEGF was washed away, and the protein was allowed to dissociate for 15 and 30 minutes at room temperature. SAPE was added, and secondary labeling was performed on ice. Excel's Regression function was used to calculate koff for each peptide using three time points (0, 15, and 30 minutes) and the standard error for the regression.
Each clone was incubated with 10 nM VEGF and allowed to come to equilibrium. The excess VEGF was washed away, and the cells were separated into 4 aliquots and diluted 1/10 in room temperature PBS. SAPE was added to the appropriate aliquot after 5, 10, 15, and 30 minutes for secondary labeling on ice. The mean fluorescence at these time points was used to determine koff. In most cases, the t=30 minute point could not be incorporated into the regression.
Target sequence in this assay (P15692 207-315 limits assumed): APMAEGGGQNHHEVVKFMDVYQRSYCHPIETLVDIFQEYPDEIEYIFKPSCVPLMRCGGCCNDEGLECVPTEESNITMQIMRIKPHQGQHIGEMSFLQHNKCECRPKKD

[3] = test system: VEGF; experiment: Equilibrium binding of displayed clones with VEGF at 1 nM and 10 nM; settings: displayed on cell surface
Target sequence in this assay (P15692 207-320 limits assumed): as the sequence (P15692 207-320 limits assumed) above

[4] = target: T1, VEGF (Homo sapiens, UniProt P15692); settings: Fairbrother et al. (1998); read-out: reported equilibrium dissociation constant (KD); cited from earlier work
T1 sequence (P15692 214-315 limits assumed): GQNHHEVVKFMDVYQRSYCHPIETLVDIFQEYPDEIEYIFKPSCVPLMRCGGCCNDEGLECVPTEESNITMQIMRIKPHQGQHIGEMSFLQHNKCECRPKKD

[5] = test system: biotinylated recombinant murine VEGF (rmVEGF); experiment: Murine cross-reactivity, flow cytometry; assay type: binding; settings: rmVEGF at 25 and 250 nM
Chain of biotinylated recombinant murine VEGF (rmVEGF) (Q00731 205-317 limits assumed): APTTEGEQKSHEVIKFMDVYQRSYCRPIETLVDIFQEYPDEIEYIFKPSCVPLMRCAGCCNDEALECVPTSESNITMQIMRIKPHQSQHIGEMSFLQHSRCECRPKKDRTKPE
Protocol: Cells expressing VEGF-binding peptides were incubated with biotinylated recombinant murine VEGF (rmVEGF). Fluorescence labeling was performed with SAPE as previously described. The first seven clones listed in Table 5 as well as v114 were assayed for cross-reactivity with rmVEGF. All of the ligands analyzed bound rmVEGF at concentrations of 25 and 250 nM, as measured by flow cytometry.

[6] = test system: VEGF; experiment: Specificity: retention of VEGF binding fluorescence in BSA and serum; settings: 10-nM VEGF; serum dilutions; FIG. 5
Protocol: In addition, measurements of specificity were performed for the four peptides whose off-rate could be calculated. Each clone was incubated with 10-nM VEGF in varying dilutions of BSA and serum followed by secondary labeling with SAPE at the same BSA/serum concentration. It was assumed that a specific peptide would retain more fluorescence upon serum addition than a non-specific peptide. The serum was first prepared by incubation with cells overexpressing the CPXopt template, spinning down the cell pellet and any bacteria-specific proteins bound to them, and removing the supernatant for incubation with the selected clones. Adding BSA up to physiological conditions decreased the mean fluorescence of each clone by an average of ˜40%, seemingly indicating some degree of specificity. […] FIG. 5 gives the fluorescence remaining after serum addition relative to initial fluorescence (at a serum dilution of 1/100), which was taken to be a measure of the specificity of the interaction between the peptide and VEGF. […] Therefore, the change in fluorescence of a gated population of positive binding cells was used to determine the specificity metric. In some cases with undiluted serum, a significant fraction of cells (>˜1%) still fell into this positive, and the fluorescence of this small fraction of cells was used to calculate the specificity. […]
Target sequence in this assay (P15692 207-320 limits assumed): as the sequence (P15692 207-320 limits assumed) above

[7] = target: T2, vascular endothelial growth factor (VEGF) (UniProt P15692-4 27-191, limits assumed, biotinylated); experiment: flow cytometry competition; soluble v114 premixed with biotinylated VEGF; competitor: displayed L3.F5A.01, compared with displayed L2.F4.04
T2 construct: Soluble biotinylated VEGF used to label cells that display the peptides; also called biotinylated VEGF
T2 sequence (P15692 other isoform, or with tags, fused parts or gaps limits assumed): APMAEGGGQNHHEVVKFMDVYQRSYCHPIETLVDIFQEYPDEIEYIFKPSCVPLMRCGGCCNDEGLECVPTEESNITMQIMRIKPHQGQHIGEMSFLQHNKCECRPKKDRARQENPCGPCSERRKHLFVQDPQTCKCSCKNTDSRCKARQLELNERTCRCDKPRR
Protocol: Biotinylated VEGF was first mixed with various concentrations of soluble v114 peptide (Anaspec); the ratio of soluble peptide to VEGF ranged from ˜2:1 to 5000:1. Cells expressing VEGF binding peptides were then incubated with this VEGF/peptide mixture and allowed to equilibrate at 4° C. After centrifugation, unbound protein/peptide was removed, and the cells were resuspended in SAPE for fluorescence labeling.

[8] = target: T2, vascular endothelial growth factor …; experiment: apparent equilibrium KD measured from the bacterial cell surface, flow cytometry
[9] = target: T2, vascular endothelial growth factor …; experiment: flow cytometry, peptide displayed on bacterial cell surface, dissociation of biotinylated VEGF at 37° C.
Protocol: as §1

[10] = target: T2, vascular endothelial growth factor …; experiment: comparison of room temperature koff values of Table 5, flow cytometry on displayed peptides
Protocol: as §1

[11] = target: T2, vascular endothelial growth factor …; experiment: flow cytometry, peptide displayed on bacterial cell surface, dissociation of biotinylated VEGF at room temperature
Protocol: as §1

[12] = target: T2, vascular endothelial growth factor …; experiment: comparison of 37° C. koff values of Table 5, flow cytometry on displayed peptides
Protocol: as §1

| Molecule | 37° C. koff [1] [s⁻¹] | RT koff [1] [s⁻¹] | Kd [8] [nM] | koff [9] [s⁻¹] | koff [11] [s⁻¹] | also measured |
| --- | --- | --- | --- | --- | --- | --- |
| SSKCGRWGETPCLAEGGGSGGGNFGYGKWEWDYGKWLEKVG [Clone L3.F5A.01, SSKCGRWGETPCLAE-GGGSGGG-NFGYGKWEWDYGKWLEKVG] | 0.00012 | 2e-05 |  |  |  |  |
| WKELRFWDWEGGNHKKCVT (VEGF-binding peptide) [Clone L2.F3B.12] |  |  |  |  |  | dissociation rate (in words) [2]: slow dissociation rates |
| GPGWWLWDWDNLGARRGGL (VEGF-binding peptide) [Clone L2.F3A.10] |  |  |  |  |  | fluorescence labeling when bound to VEGF [3]: better labeling |
| NFGYGKWEWDYGKWLEKVG [Clone L2.F4.04] | 0.0013 | 0.0013 |  |  |  | dissociation rate (in words) [2]: slow dissociation rates; fluorescence labeling when bound to VEGF [3]: bright fluorescence signals |
| SKLKTLLWQQGGGSGGGNFGYGKWEWDYGKWLEKV [Clone L3.F6.02, SKLKTLLWQQ-GGGSGGG-NFGYGKWEWDYGKWLEKV] | 0.0014 | 0.000291 |  |  |  |  |
| VEPNCDIHVMWEWECFERL [v114, soluble peptide from Anaspec; positive control] |  |  |  |  |  | Kd [4]: 110 nM; binding of rmVEGF [5]: bound rmVEGF |
| HQQLQYWDWIEAVVHNG (VEGF-binding peptide) [Clone L2.F3A.05] |  |  |  |  |  | dissociation rate (in words) [2]: slow dissociation rates |
| SYVLKEWSVPSWGKPGGGSGGGNFGYGKWEWDYGKWLEKV [Clone L3.F6.01, SYVLKEWSVPSWGKP-GGGSGGG-NFGYGKWEWDYGKWLEKV] | 0.00025 | 0.00011 |  |  |  |  |
| VTSRYEMREDGSWKKGGGSGGGNFGYGKWEWDYGKWLEKVG [Clone L3.F5A.02, VTSRYEMREDGSWKK-GGGSGGG-NFGYGKWEWDYGKWLEKVG] | 0.00074 |  |  |  |  |  |
| AKRSSYSMWGAMPGGGSGGGNFGYGKWEWDYGKWLEKV [Clone L3.F5A.03, AKRSSYSMWGAMP-GGGSGGG-NFGYGKWEWDYGKWLEKV] | 0.0006 | 4.28e-05 |  |  |  |  |
| CPVQTMWDWECMRAFIEG [Clone L2.F3B.08] | 0.0042 | 0.0072 |  |  |  | dissociation rate (in words) [2]: good dissociation kinetics; fluorescence labeling when bound to VEGF [3]: bright fluorescence signals; effect of serum addition on VEGF binding fluorescence [6]: loses more fluorescence upon serum addition than does L2.F4.04 |
| B1 |  |  |  |  |  | fold increase in the concentration of v114 required to block 50% of VEGF binding, bidentate peptide against parent peptide [7]: ≥ 5 fold |
| B2 |  |  | 2.6 | 0.00074 |  |  |
| B3 |  |  | 5 | 0.0014 | 0.000291 | fold improvement (slower dissociation) against the monodendate parent peptide L2.F4.04 [10]: 4 to 65 fold |
| B4 |  |  | 3.7 | 0.0006 | 4.28e-05 |  |
| B5 |  |  | 6.1 | 0.0013 | 0.0013 |  |
| B6 |  |  | 3.5 | 0.00025 | 0.00011 |  |
| B7 |  |  | 2.1 | 0.00012 | 2e-05 | fold improvement (slower dissociation) against the monodendate parent peptide L2.F4.04 [10]: 4 to 65 fold; fold improvement (slower dissociation) against the monodendate parent peptide L2.F4.04 [12]: ≤ 12 fold |
| B8 |  |  | 17.8 | 0.0042 | 0.0072 |  |
